System: MS2 coat protein
Test: apparent KD of MS2 coat protein; designed switch direction (-1 OFF switch, 1 ON switch): -1; higher = weaker reporter binding
Procedure, shortened: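 Designed RNA switches were transcribed on Illumina chips by stalled E. coli RNA polymerase and titrated with SNAP-549-labelled MS2 coat protein from 0.7 or 1.5 nM, doubling to 3 µM. Step length ran from 0.8–1.5 h at the lowest concentration to 10–20 min at the highest. The apparent KD is the median over clusters for each design, from curve-fitted normalised cluster fluorescence.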

[1] = Eterna round: R95, input ligand: microRNA oligo, concentration not stated
[2] = Eterna round: R95, input ligand: FMN 200 uM
[3] = Eterna round: R95, input ligand: none
[4] = input ligand: microRNA oligo, concentration not stated

| Sequence | apparent KD of MS2 coat protein [1] [nM] | apparent KD of MS2 coat protein (input ligand: FMN 200 uM) [nM] | apparent KD of MS2 coat protein (input ligand: none) [nM] | apparent KD of MS2 coat protein [2] [nM] | apparent KD of MS2 coat protein [3] [nM] | apparent KD of MS2 coat protein [4] [nM] |
| --- | --- | --- | --- | --- | --- | --- |
| CCAGCGUAUGUGAGGAUAUGCUGGUCCUUGGAUCAGCAGAAGGCACAUGAGGAUCACCCAUGUGAUGACGUUGG [JL bmx4 3.40] (puzzle: Brourd's mod of Exclusion 4) | 42.6 | – | – | – | – | – |
| UUUAGUUCAGGAUAUGUAGAUUUUAACAUGAGGAUCACCCAUGUAGAUCCUGAAUUAACUACAGAAGGGAACAUUU [Mod of Brourd 1 - Jieux - Exclusion 5] (Eterna round: R97, puzzle: Exclusion 5) | – | 77.2 | 22.5 | – | – | – |
| CUUCCACGGAUUGUAUUAAACAUGAGGAUCACCCAUGUCCGGGAUUUAAAACAAGCCCUUUGCUCAGUCCUUAUUGC [Eternabot (L1) Solution 10] (Eterna round: R97, puzzle: Sensor, turn-off variant 1) | – | 22.2 | 25.9 | – | – | – |
| AAGAAACAUGAGGAUCACCCAUGUGAGGAUAUGAAAAAGAAAAGAAAAGAAAGAAGUUUCAGAAGGCACAAAGG [salish99-ex1_r3_024] (puzzle: Exclusion 1) | 41.2 | – | – | 83.8 | 44.9 | – |
| AAUAAUGGAGGAUAUACUAAAAUAUGAAUAAAAUAAAUAAAACAUGAGGAUCACCCAUGUAGAAGGCCAAAUAA [JMF's Not so obvious solution 2] (puzzle: Exclusion 2) | 22.7 | – | – | 20.9 | 27.7 | – |
| GGUUUGUAAGGAUAUCCGAGAGGUAGGUGAGGGUUAGGGAAGGAGAAGGUACAUGAGGAUCACCCAUGUAAGGG [AK-MS2ROC-r4-exclusion4-10] (Eterna round: R97, puzzle: Exclusion 4) | – | 127 | 102 | – | – | – |
| GAAAAGUAAGGAUAUGUCUCCAGUGAGGAAACUCACUGGAGACAGAAGGUACAUGAGGAUCACCCAUGUUCCUC [ExDelusion 5 - Jieux - Exclusion 4] (Eterna round: R97, puzzle: Exclusion 4) | – | 289 | 42.7 | – | – | – |
| UGUGUGAGACAGGAUAUGCUGGAUGUGAGGCGGGUAGAAGGGUCUACAUGAGGAUCACCCAUGUGGCCGGUUGG [Ex6 #70] (Eterna round: R97, puzzle: Exclusion 6) | – | 19.4 | 17.3 | – | – | – |
| GUACUGAAGCUUUGCUUUAGUCGUACAUGAGGAUCACCCAUGUAGGAUAUGGUAGGCUUUGCUUACUAGAAGGACAGAGUGAUC [JL EXNG3 1.26] (Eterna round: R96, puzzle: Exclusion NG 3) | – | 33.1 | 75.7 | – | – | 139 |
| GGAAAGCAAGGAUAUACGAGGAGAAGGAGGAAAGUUAAAGGACAUGAGGAUCACCCAUGUAGAAGGUGCGAGAG [JR_Exclu2_Sub041] (puzzle: Exclusion 2) | 30.7 | – | – | 30 | 34.6 | – |
| AAAUUGUGAGGAUAUUAGUUGUACGUCAAUAGACGUAUAAGUGAGAAGGCACAUGAGGAUCACCCAUGUUCCUG [Omei Ex4 Mod of Mat's R95 mod of Omei] (Eterna round: R97, puzzle: Exclusion 4) | – | 61.8 | 16.8 | – | – | – |
| UAUUAACAAGCAUGAUCCCACAUGAGGAUCACCCAUGUGCUCGUCUUAUAAGGUACUGUGACGAAAGUCACGGUACC [Sensor 3, v1 - 85] (puzzle: Sensor v3, turn-off variant 1) | 139 | – | – | 132 | 144 | – |
| GGCAUAAACGAGGAUAUCGUUACGGAAACGUAACGAGAAGGUGUAACAUGAGGAUCACCCAUGUUCCUCAAGCC [Mat - Exclusion 6 - Eli Mod - D59] (Eterna round: R96, puzzle: Exclusion 6) | – | 36.8 | 38 | – | – | 29.8 |
| UACAUGAGGAUCACCCAUGUUUUGUCGUGUAUGGUAUUUAUCUAGGAUAUCAAUCUAUGUAUUUAUGAGAAGGAGAAUAUUAAU [JMF's solution 51] (Eterna round: R96, puzzle: Exclusion NG 3) | – | – | – | – | – | 31 |
| UAUUCGCGAGGAUAUGCAGUCGAGUCCAUUACGUGUCUGGGACUUGAGGAUCACCCAAGUAGAAGGCGUCUCAG [salish99_ex2_r4_641] (Eterna round: R97, puzzle: Exclusion 2) | – | 160 | 194 | – | – | – |
| GUCUGCACGCUGCGGUCCUACAUGAGGAUCACCCAUGUGGUCUGGUGGCGUGGGUCACCGGACUUGGCUCGUCUUGC [salish99_S_TOV1_R5_052] (Eterna round: R97, puzzle: Sensor, turn-off variant 1) | – | 19.1 | 18.9 | – | – | – |
| AGUAACCGUCACGAAAGUGAUGGUUACGCAAGCAAUGAAACAUGAGGAUCACCCAUGUCCUCAUUUGCUCGUCUUAU [Sensor 3 - 41] (puzzle: Sensor v3, turn-off variant 2) | 347 | – | – | 24.6 | 25.7 | – |

| Sequence | apparent KD of MS2 coat protein [1] [nM] | apparent KD of MS2 coat protein (input ligand: FMN 200 uM) [nM] | apparent KD of MS2 coat protein (input ligand: none) [nM] | apparent KD of MS2 coat protein [2] [nM] | apparent KD of MS2 coat protein [3] [nM] | apparent KD of MS2 coat protein [4] [nM] |
| --- | --- | --- | --- | --- | --- | --- |
| UUAUACGCUGAGGAUAUCAUCACUGAGAGGUGAUGAGAAGGCGGUACAUGAGGAUCACCCAUGUCUAUGGGCAG [Ex-6 Malc#21] (puzzle: Exclusion 6) | 187 | – | – | – | – | – |
| ACCGCCGGCGUAAGGAUAUGUGAAGAAAUCCCUUUACAGAAGGUACAUGAGGAUCACCCAUGUCUUCUAGGACG [Eternabot (L1) Solution 96] (Eterna round: R97, puzzle: Brourd's mod of Exclusion 4) | – | 21.3 | 22.3 | – | – | – |
| AAACAGGAUGUAAGGAUAUCCAAGUGCUAAGCACGGGAGAAGGUACAUGAGGAUCACCCAUGUGGUCUUCCAAU [Quesardi] (Eterna round: R97, puzzle: Brourd's mod of Exclusion 4) | – | 253 | 120 | – | – | – |
| ACAAGCUUUGUUGUGGGUGACAUGAGGAUCACCCAUGUUUGCCGCGUCUUGUGGGCCCGGGCCCGCGGCCCGGGCCC [-42.5, -64.4, A 12%] (Eterna round: R97, puzzle: Sensor, turn-off variant 1) | – | 202 | 173 | – | – | – |
| AGUAGAUCUACGCUUGCGUGGAUCUGCAAAGCAGGUGUUACAUGAGGAUCACCCAUGUCCUCAUUUGCUCGUCUUAG [JL turnoff v2 99.08] (puzzle: Sensor v3, turn-off variant 2) | 563 | – | – | 71.8 | 65.1 | – |
| UAUUAGCGAGGAUAUACAUGAGGAUCACCCAUGUGAUCCUAAGGCUGAUAAAGCCUAUGUAGAAGGCGCAAAAG [jl-ex3.4.51 ViennaUCT mod] (Eterna round: R97, puzzle: Exclusion 3) | – | 227 | 421 | – | – | – |
| AUUUGCUCGUCUACUCAAAACAUGAGGAUCACCCAUGUCGGAUUGGAUCCUACCCAGUCAAGACCAUACUCCUCGAC [Eternabot (Original) Solution 39] (Eterna round: R97, puzzle: Sensor, turn-off variant 1) | – | 342 | 344 | – | – | – |
| UUAACAUGCUGGUGAUCAUACAUGAGGAUCACCCAUGUAACAAGCUUUUUGCUCGUCUUAUAAUUUAAGAUCACCAG [Stov1/7-A1] (Eterna round: R97, puzzle: Sensor, turn-off variant 1) | – | 17 | 15.9 | – | – | – |
| AGUCCUGGAGUUAGGAUAUGGAGUAUCACUGCGCUUCAGAAGGGACUUGAGGAUCACCCAAGUAGCCGUGAGGG [salish99_bmod_ex4_r4_005] (Eterna round: R97, puzzle: Brourd's mod of Exclusion 4) | – | 98.5 | 59.4 | – | – | – |
| AAGUACCGUCACGAUAGUGAUGGUACAACAAGCAGUGAAACAUGAGGAUCACCCAUGUCCUCAGUUGCUCGUCUUAU [Sensor 3 - 79] (puzzle: Sensor v3, turn-off variant 2) | 492 | – | – | 196 | 195 | – |
| UUAAUUAAUUAAGCGCAAGAUCACAUGAGGAUCACCCAUGUAUAGGAUAUCAGCUCGAUUAGAGCUGAGAAGGAUACAUAGCGC [ExNG3/2-A1] (Eterna round: R96, puzzle: Exclusion NG 3) | – | – | – | – | – | 185 |
| GGCAAACAUGAGGAUCACCCAUGUAAGGAUAUUAGGCGAUCGUCGAAAGACGAUAGCCUGAGAAGGUGCAUGCC [Eli x1 4.15] (Eterna round: R97, puzzle: Exclusion 1) | – | 38.8 | 22.4 | – | – | – |
| GUCAGACGAGGAUAUAAAUUUGAUAACAUGAGGAUCACCCAUGUGAUCGAUAGAUCAAAUUUAGAAGGCGUCUGAC [E5/7-A4] (Eterna round: R97, puzzle: Exclusion 5) | – | 520 | 492 | – | – | – |
| AGAGUACUGCGAGGAUAUACAUGAGGAUCACCCAUGUAAAAGUGUGAGGCAAAGCCUCACACUAUGUAGAAGGCGCAGUACUCA [Mat - Exclusion NG 2 - Mod of JL - D12] (Eterna round: R96, puzzle: Exclusion NG 2) | – | 19 | 18.2 | – | – | 9.76 |
| UUUAUAAUUUCAAUCUUCGCCAGCAAACUUACGCUAGCCACAUGAGGAUCACCCAUGUUUUUUGUUCGUUUUAUUCU [Veedcera] (puzzle: Sensor v3, turn-off variant 2) | 57.5 | – | – | 18 | 19.5 | – |
| CUUUUGUGAGGAUAUUAGUAGUAAAUAAUUAAAAUUAUUACUGAGAAGGCACAUGAGGAUCACCCAUGUAACUC [JR_Ex4_Sub027] (Eterna round: R97, puzzle: Exclusion 4) | – | 400 | 49.9 | – | – | – |

— the supplement of paper PMC9170038
